We go through 12 substances from PMC4709591.

Test [1] deals with human toll-like receptor 5 (TLR5) (human) (UniProt O60602).
Test [2] shares this target. This is another data set of the same source.
Test [3] has the same target. The source holds these as a separate data set.
The target is the same in test [4]. The source holds these as a separate data set.

Chain of UniProt O60602 (O60602 21-858): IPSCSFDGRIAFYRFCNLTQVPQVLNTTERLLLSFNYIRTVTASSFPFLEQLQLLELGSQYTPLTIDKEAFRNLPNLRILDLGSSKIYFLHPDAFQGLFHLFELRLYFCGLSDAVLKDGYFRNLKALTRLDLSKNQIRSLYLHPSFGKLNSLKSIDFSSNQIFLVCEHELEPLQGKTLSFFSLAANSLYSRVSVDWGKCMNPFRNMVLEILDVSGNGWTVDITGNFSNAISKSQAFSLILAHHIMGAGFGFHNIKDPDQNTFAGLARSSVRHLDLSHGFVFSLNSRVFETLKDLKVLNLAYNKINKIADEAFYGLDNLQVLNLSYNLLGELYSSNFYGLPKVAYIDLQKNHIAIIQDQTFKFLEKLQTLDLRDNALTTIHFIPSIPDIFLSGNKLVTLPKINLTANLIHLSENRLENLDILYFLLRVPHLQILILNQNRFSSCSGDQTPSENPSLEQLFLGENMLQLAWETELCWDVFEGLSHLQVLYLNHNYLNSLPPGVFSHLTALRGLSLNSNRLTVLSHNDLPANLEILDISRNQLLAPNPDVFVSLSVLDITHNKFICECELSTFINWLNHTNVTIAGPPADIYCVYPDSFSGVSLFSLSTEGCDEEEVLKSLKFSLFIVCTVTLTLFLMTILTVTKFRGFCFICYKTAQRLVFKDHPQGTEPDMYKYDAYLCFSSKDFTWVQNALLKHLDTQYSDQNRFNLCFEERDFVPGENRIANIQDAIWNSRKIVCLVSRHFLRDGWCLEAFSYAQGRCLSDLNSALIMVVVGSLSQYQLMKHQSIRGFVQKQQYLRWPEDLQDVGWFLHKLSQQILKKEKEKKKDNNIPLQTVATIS

“flagellin (FliC) from S. typhimurium SL1344, full-length (from UniProt P06179 1-495) (natural protein)”: in test [1], the EC50 of bioactivity (SEAP reporter in HEK-Blue-hTLR5 cells) was 1.3 pM. The substance “flagellin mutant SS1 (L12-N484 replaced with cysteine) (from UniProt P06179 1-495) (natural protein)” had an EC50 of bioactivity (cell-based TLR5 stimulation assay); decreased against native flagellin in test [2] below 10 pM. In the case of “flagellin mutant SS2 (Q22-Q473 replaced with cysteine) (from UniProt P06179 1-495) (natural protein)”, the EC50 of bioactivity (cell-based TLR5 stimulation assay); decreased against native flagellin in test [2] was below 10 pM. “flagellin mutant SS3 (Q22-T477 replaced with cysteine) (from UniProt P06179 1-495) (natural protein)”: the EC50 of bioactivity (cell-based TLR5 stimulation assay); decreased against native flagellin in test [2] was below 10 pM. In the case of “flagellin mutant SS4 (G35-S457 replaced with cysteine) (from UniProt P06179 1-495) (natural protein)”, the EC50 of bioactivity (cell-based TLR5 stimulation assay); decreased against native flagellin in test [2] is below 10 pM. Take “flagellin mutant SS5 (L36-D456 replaced with cysteine) (from UniProt P06179 1-495) (natural protein)”: the EC50 of bioactivity (cell-based TLR5 stimulation assay); decreased against native flagellin in test [2] is below 10 pM. Consider “flagellin mutant SS6 (A51-R451 replaced with cysteine) (from UniProt P06179 1-495) (natural protein)”, for which the EC50 of bioactivity (cell-based TLR5 stimulation assay); decreased against native flagellin in test [2] was below 10 pM. In turn, “flagellin without the C-terminal D0 domain (S452-R495) (from UniProt P06179 1-451) (domain or fragment)” registered an EC50 of bioactivity (SEAP reporter in HEK-Blue-hTLR5 cells) in test [1] of 80 pM.

In test [3], “flagellin-HBc VLP conjugate with 2 flagellins on a VLP (1:40 reactant ratio) (from UniProt P06179 1-495) (complex)” yielded a bioactivity against free flagellin (SEAP reporter in HEK-Blue-hTLR5 cells) of 7 fold. For the same substance, the potency of TLR5 stimulation, based on flagellin concentration (SEAP reporter in HEK-Blue-hTLR5 cells) in test [4] came to 1 pM. In turn, “flagellin-HBc VLP conjugate with 10 flagellins on a VLP (1:10 reactant ratio) (from UniProt P06179 1-495) (complex)” displayed a bioactivity against free flagellin (SEAP reporter in HEK-Blue-hTLR5 cells) in test [3] of 7 fold. In test [3], “flagellin-HBc VLP conjugate with 33 flagellins on a VLP (1:2 reactant ratio) (from UniProt P06179 1-495) (complex)” had a bioactivity against free flagellin (SEAP reporter in HEK-Blue-hTLR5 cells) of 7 fold. The potency of TLR5 stimulation, based on flagellin concentration (SEAP reporter in HEK-Blue-hTLR5 cells) in test [4] came out at 1 pM. For “soluble SS5 HIII flagellin (L36C-D456C; HPG1+A2I+M310I+M466I) (from UniProt P06179 1-495) (natural protein)”, in test [3], the minimum flagellin concentration stimulating the TLR5 receptors (SEAP reporter in HEK-Blue-hTLR5 cells) came out at 0.2 pM.
